Positions count from the first letter of the chain named.
Key:
[1] = system: T1, MUC1/CD (purified hexahistidine tagged MUC1 cytoplasmic domain), unphosphorylated
T1 sequence: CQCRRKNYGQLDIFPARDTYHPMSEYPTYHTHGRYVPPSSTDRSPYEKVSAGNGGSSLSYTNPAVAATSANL

MUC1/CD(Y46F) = system: T2, MUC1/CD(Y46F)
T2 sequence: T1 sequence with Y46F

MUC1/CD (S40A/S44A) = system: T3, MUC1/CD (S40A/S44A)
T3 sequence: T1 sequence with S40A, S44A

MUC1/CD(S40A) = system: T4, MUC1/CD(S40A)
T4 sequence: T1 sequence with S40A

MUC1/CD(S44A) = system: T5, MUC1/CD(S44A)
T5 sequence: T1 sequence with S44A

MUC1/CD(T41A) = system: T6, MUC1/CD(T41A)
T6 sequence: T1 sequence with T41A

Substance | phosphorylation of MUC1/CD ([γ-32P]ATP, SDS-PAGE, autoradiography) [1] | phosphorylation of MUC1/CD(Y46F) ([γ-32P]ATP, autoradiography) (MUC1/CD(Y46F)) | phosphorylation ([γ-32P]ATP, autoradiography) (MUC1/CD (S40A/S44A)) | phosphorylation ([γ-32P]ATP, autoradiography) (MUC1/CD(S40A)) | phosphorylation ([γ-32P]ATP, autoradiography) (MUC1/CD(S44A)) | phosphorylation ([γ-32P]ATP, autoradiography) (MUC1/CD(T41A))
purified c-Src polypeptide (Oncogene Research Products) | demonstrated c-Src-mediated phosphorylation of MUC1/CD | Incubation of MUC1/CD(Y46F) with c-Src demonstrated a decrease in phosphorylation as compared to that found with wild-type MUC1/CD | – | – | – | –
purified recombinant PKCδ (PanVera / Calbiochem-Novabiochem) | demonstrated phosphorylation of MUC1 CD | – | phosphorylation of MUC1 by PKCδ was unaffected by S to A mutations of either or both of the flanking serines | phosphorylation of MUC1 by PKCδ was unaffected by S to A mutations of either or both of the flanking serines | phosphorylation of MUC1 by PKCδ was unaffected by S to A mutations of either or both of the flanking serines | PKCδ-mediated phosphorylation of MUC1/CD(T41A) was attenuated compared to that obtained with wild-type MUC1/CD
